Reference: IntAct's records for PubMed 12601044

B1: Alpha-crystallin A chain (Homo sapiens), P02489 (parent)
chain: MDVTIQHPWFKRTLGPFYPSRLFDQFFGEGLFEYDLLPFLSSTISPYYRQSLFRTVLDSGISEVRSDRDKFVIFLDVKHFSPEDLTVKVQDDFVEIHGKHNERQDDHGYISREFHRRYRLPSNVDQSALSCSLSADGMLTFCGPKIQTGLDATHAERAIPVSREEKPTSAPSS
partner: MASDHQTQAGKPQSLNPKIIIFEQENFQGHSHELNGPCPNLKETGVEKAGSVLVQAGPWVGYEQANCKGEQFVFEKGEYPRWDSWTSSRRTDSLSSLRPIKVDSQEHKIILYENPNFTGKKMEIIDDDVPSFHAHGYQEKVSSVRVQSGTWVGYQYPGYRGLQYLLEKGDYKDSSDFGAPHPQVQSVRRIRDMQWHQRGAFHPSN
B2: Alpha-crystallin B chain (Homo sapiens), P02511 (parent)
chain: MDIAIHHPWIRRPFFPFHSPSRLFDQFFGEHLLESDLFPTSTSLSPFYLRPPSFLRAPSWFDTGLSEMRLEKDRFSVNLDVKHFSPEELKVKVLGDVIEVHGKHEERQDEHGFISREFHRKYRIPADVDPLTITSSLSSDGVLTVNGPRKQVSGPERTIPITREEKPAVTAAPKK
partner: B1 chain
B3: Alpha-crystallin B chain (Homo sapiens), P02511 (parent)
chain: B2 chain
partner: B1 partner
B4: Alpha-crystallin A chain (Homo sapiens), P02489 (parent)
chain: B1 chain
partner: B2 chain
B5: Gamma-crystallin C (Homo sapiens), P07315 (parent)
chain: MGKITFYEDRAFQGRSYETTTDCPNLQPYFSRCNSIRVESGCWMLYERPNYQGQQYLLRRGEYPDYQQWMGLSDSIRSCCLIPQTVSHRLRLYEREDHKGLMMELSEDCPSIQDRFHLSEIRSLHVLEGCWVLYELPNYRGRQYLLRPQEYRRCQDWGAMDAKAGSLRRVVDLY
partner: B2 chain
B6: Gamma-crystallin C (Homo sapiens), P07315 (parent)
chain: B5 chain
partner: B1 partner
B7: Alpha-crystallin A chain (Homo sapiens), P02489 (parent)
chain: B1 chain

Variants of: B1
Conditions: with crbb2_human CRYBB2, P43320
MDVTIQHPWFKRTLGPFYPSRLFDQFFGEGLFEYDLLPFLSSTISPYYRQSLFRTVLDSGISEVRSDRDKFVIFLDVKHFSPEDLTVKVQDDFVEIHGKHNERQDDHGYISREFHCRYRLPSNVDQSALSCSLSADGMLTFCGPKIQTGLDATHAERAIPVSREEKPTSAPSS [R116C] was tested, and the “effect of a mutation on the interaction” value was “disrupting interaction”.

Variants of: B2
Conditions: with cryaa_human CRYAA
In the case of MDIAIHHPWIRRPFFPFHSPSRLFDQFFGEHLLESDLFPTSTSLSPFYLRPPSFLRAPSWFDTGLSEMRLEKDRFSVNLDVKHFSPEELKVKVLGDVIEVHGKHEERQDEHGFISREFHGKYRIPADVDPLTITSSLSSDGVLTVNGPRKQVSGPERTIPITREEKPAVTAAPKK [R120G], the “effect of a mutation on the interaction” value is reported as “decreasing interaction”.

Variants of: B3
Conditions: with crbb2_human CRYBB2, P43320
With MDIAIHHPWIRRPFFPFHSPSRLFDQFFGEHLLESDLFPTSTSLSPFYLRPPSFLRAPSWFDTGLSEMRLEKDRFSVNLDVKHFSPEELKVKVLGDVIEVHGKHEERQDEHGFISREFHGKYRIPADVDPLTITSSLSSDGVLTVNGPRKQVSGPERTIPITREEKPAVTAAPKK [R120G] the “effect of a mutation on the interaction” value was “increasing interaction”.

Variants of: B4
Conditions: with cryab_human CRYAB
MDVTIQHPWFKRTLGPFYPSRLFDQFFGEGLFEYDLLPFLSSTISPYYRQSLFRTVLDSGISEVRSDRDKFVIFLDVKHFSPEDLTVKVQDDFVEIHGKHNERQDDHGYISREFHCRYRLPSNVDQSALSCSLSADGMLTFCGPKIQTGLDATHAERAIPVSREEKPTSAPSS [R116C] was tested, and the “effect of a mutation on the interaction” value was “increasing interaction”.

Variants of: B5
Conditions: with cryab_human CRYAB
In the case of T5P, the “effect of a mutation on the interaction” value is reported as “disrupting interaction”.

Variants of: B6
Conditions: with crbb2_human CRYBB2, P43320
T5P was tested, and the “effect of a mutation on the interaction” value was “disrupting interaction”.

Variants of: B7
Conditions: with crgc_human CRYGC
In the case of MDVTIQHPWFKRTLGPFYPSRLFDQFFGEGLFEYDLLPFLSSTISPYYRQSLFRTVLDSGISEVRSDRDKFVIFLDVKHFSPEDLTVKVQDDFVEIHGKHNERQDDHGYISREFHCRYRLPSNVDQSALSCSLSADGMLTFCGPKIQTGLDATHAERAIPVSREEKPTSAPSS [R116C], the “effect of a mutation on the interaction” value is reported as “disrupting interaction”.
